Reference: patent US5955579, “Islet-specific homeoprotein and transcriptional regulator of insulin gene expression, HOXB13” (Strang Cancer Prevention Center)

Biological target: HoxB13 (CIX-1, Isl-3) (Rattus norvegicus)
Assay: EMSA; described as high affinity; competed by 50 ng unlabeled FLAT; 50 mM KCl, 20 mM HEPES pH 7.8, 1 mM EDTA, 20% glycerol, room temperature
Details: tags: GST fusion (pGEX-3X) expressed in E. coli BL21, GST removed by factor Xa; GATC 5' overhangs filled in
Experimental: For gel shift assays, the labeled fragment was incubated 15 minutes at room temperature with buffer alone (50 mM KCI, 20 mM HEPES pH 7.8, 1 mM EDTA, 20% glycerol, 1 mM DTt and 1 mM PMSF), 1 μl bacterially expressed HoxB13 (see Example 3; "rCIX-1" in FIG. 4), 1 μl HoxB13 and 50 ng unlabeled FLAT DNA ("rCIX-1+50 ng FLAT" in FIG. 4), 5 μg Hela cell nuclear extract, 5 μg RIN cell nuclear extract, 5 μg RIN extract and 50 ng FLAT, 5 μg HeLa extract and 50 ng FLAT (respectively, as shown in FIG. 4). The samples were then run on a 5% acrylamide gel in 0.5× TBE.

Sequence of HoxB13 (CIX-1, Isl-3) (Rattus norvegicus) (chain, as listed by the source): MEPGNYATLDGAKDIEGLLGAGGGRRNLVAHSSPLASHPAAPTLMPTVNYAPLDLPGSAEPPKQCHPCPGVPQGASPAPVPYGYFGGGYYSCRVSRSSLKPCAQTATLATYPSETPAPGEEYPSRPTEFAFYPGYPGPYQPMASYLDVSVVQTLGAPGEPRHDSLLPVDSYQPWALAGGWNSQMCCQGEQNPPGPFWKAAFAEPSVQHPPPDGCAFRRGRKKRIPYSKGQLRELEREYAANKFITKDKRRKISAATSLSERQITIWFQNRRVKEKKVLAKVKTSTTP

B1: FLAT element probe (dsDNA)
DNA 1: GATCCCCTTGTTAATAATCTAATTACCCTAGG
DNA 2: GATCCCTAGGGTAATTAGATTATTAACAAGGG
  binding result: binds
